{"source": "patent US10254283", "key": {"[1]": {"biological_target": "recombinant Histone H3.1 (New England BioLabs, M2503S)"}}, "data": [{"protein": "recombinant MELK (kinase domain) (protein) MKDYDELLKYYELHETIGTGGFAKVKLACHILTGEMVAIKIMDKNTLGSDLPRIKTEIEALKNLRHQHICQLYHVLETANKIFMVLEYCPGGELFDYIISQDRLSEEETRVVFRQIVSAVAYVHSQGYAHRDLKPENLLFDEYHKLKLIDFGLCAKPKGNKDYHLQTCCGSLAYAAPELIQGKSYLGSEADVWSMGILLYVLMCGFLPFDDDNVMALYKKIMRGKYDVPKWLSPSSILLLQQMLQVDPKKRISMKNLLNHPWIMQDYNYPVEWQSKNPFIHLDDDCVTELSVHHRNNRQTMEDLISLWQYDHLTATYLLLLAKKARGKPVRLRLSSFSCG", "values": [{"measurement": "in vitro kinase assay, phosphorylation of eIF4B at S406 (immunoblot)", "setting": "Flag-eIF4B (S406A)", "value": "This phosphorylation was abolished when wild type (wt) eIF4B was replaced with a mutant eIF4B (S406A)"}, {"measurement": "in vitro kinase assay, phosphorylation of eIF4B at Ser406 (immunoblot)", "setting": "Flag-eIF4B (wild type)", "value": "Ser406, but not Ser422, of human eIF4B was readily phosphorylated by full-length MELK or the kinase domain of MELK"}, {"measurement": "in vitro kinase assay, phosphorylation of eIF4B at Ser422 (immunoblot)", "setting": "Flag-eIF4B (wild type)", "value": "MELK does not phosphorylates eIF4B at S422 in vitro"}, {"measurement": "in vitro kinase assay, phosphorylation of Histone H3 at Thr3, Ser10 and Thr11 (immunoblot)", "setting": "[1]", "value": "Thr3, Ser10, and Thr11 of human Histone H3 were readily phosphorylated by the kinase domain of MELK"}]}]}
